# Measurements: patent publication US20180195054A1 (Stanford University, published 2018)
# Substitutions are numbered along the chain they refer to. In names and notes the source's numbering stands.
# B1: high-affinity SIRPα variant CV1 monomer (consensus variant 1, d1 domain) (designed binder)
# chain: EEELQIIQPDKSVLVAAGETATLRCTITSLFPVGPIQWFRGAGPGRVLIYNQRQGPFPRVTTVSDTTKRNNMDFSIRIGNITPADAGTYYCIKFRKGSPDDVEFKSGAGTELSVRAKPSHHHHHHHH
# notes: Nine consensus substitutions grafted onto wild-type SIRPα allele 2
# B2: CV1-hIgG4 (CV1 d1 domain fused to hinge, CH2 and CH3 of human IgG4 S228P) (Fc fusion)
# chain: EEELQIIQPDKSVLVAAGETATLRCTITSLFPVGPIQWFRGAGPGRVLIYNQRQGPFPRVTTVSDTTKRNNMDFSIRIGNITPADAGTYYCIKFRKGSPDDVEFKSGAGTELSVRAKPSAAAPPCPPCPAPEFLGGPSVFLFPPKPKDTLMISRTPEVTCVVVDVSQEDPEVQFNWYVDGVEVHNAKTKPREEQFNSTYRVVSVLTVLHQDWLNGKEYKCKVSNKGLPSSIEKTISKAKGQPREPQVYTLPPSQEEMTKNQVSLTCLVKGFYPSDIAVEWESNGQPENNYKTTPPVLDSDGSFFLYSRLTVDKSRWQEGNVFSCSVMHEALHNHYTQKSLSLSPGK
# notes: also called CV1-hlgG4
# B3: FD6-hIgG4 (FD6 d1 domain fused to hinge, CH2 and CH3 of human IgG4) (Fc fusion)
# chain: EEEVQIIQPDKSVSVAAGESAILHCTITSLFPVGPIQWFRGAGPARVLIYNQRQGPFPRVTTISETTRRENMDFSISISNITPADAGTYYCIKFRKGSPDTEFKSGAGTELSVRAKPSAAAPPCPPCPAPEFLGGPSVFLFPPKPKDTLMISRTPEVTCVVVDVSQEDPEVQFNWYVDGVEVHNAKTKPREEQFNSTYRVVSVLTVLHQDWLNGKEYKCKVSNKGLPSSIEKTISKAKGQPREPQVYTLPPSQEEMTKNQVSLTCLVKGFYPSDIAVEWESNGQPENNYKTTPPVLDSDGSFFLYSRLTVDKSRWQEGNVFSCSVMHEALHNHYTQKSLSLSPGK
# notes: also called FD6-hlgG4; FD-hlgG4
# B4: first generation SIRPα mutant 1A5 monomer (designed binder)
# chain: EEEVQVIQPDKSVSVAAGESAILHCTLTSLIPVGPIQWFRGAGPARVLIYNQRQGHFPRVTTVSEGTRRENMDFSISISNITPADAGTYYCIKFRKGSPDTEFKSGAGTELSVRAKPSHHHHHHHH
# B5: high-affinity SIRPα variant FD6 monomer (d1 domain) (designed binder)
# chain: B4 chain with V6I, L27I, I31F, H56P, V63I, G66T
# notes: Second generation variant of human SIRPα allele 1 d1
# B6: biotinylated FD6 monomer (designed binder)
# chain: EEEVQIIQPDKSVSVAAGESAILHCTITSLFPVGPIQWFRGAGPARVLIYNQRQGPFPRVTTISETTRRENMDFSISISNITPADAGTYYCIKFRKGSPDTEFKSGAGTELSVRAKPSGLNDIFEAQKIEWHEHHHHHHHH
# modifications: biotinylated at the C-terminal biotin acceptor peptide tag
# B7: biotinylated high-affinity SIRPα variant FA4 monomer (designed binder)
# chain: B6 chain with V4L, F31T, I63V, T66G, F103V
# modifications: biotinylated at the C-terminal biotin acceptor peptide tag
# B8: FA4 (designed binder)
# SIRPα d1 domain variant: EEELQIIQPDKSVSVAAGESAILHCTITSLTPVGPIQWFRGAGPARVLIYNQRQGPFPRVTTVSEGTRRENMDFSISISNITPADAGTYYCIKFRKGSPDTEVKSGAGTELSVRAKPS
# notes: also called FA4 mutant d1 domain; FA4 monomer (unbiotinylated, SPR analyte)
# B9: 2A10 (designed binder)
# SIRPα d1 domain variant: B8 SIRPα d1 domain variant with T31S, R68K, F94L, V103F
# notes: also called 2A10 mutant d1 domain
# B10: 2B5 (designed binder)
# SIRPα d1 domain variant: B8 SIRPα d1 domain variant with L4I, I6V, A21V, L23I, I27V, T31F, P56R, R68K, I92V, F94V
# notes: also called 2B5 mutant d1 domain
# B11: 2F5 (designed binder)
# SIRPα d1 domain variant: B8 SIRPα d1 domain variant with L4V, I6L, I27V, T31F, Q54E, R68K
# notes: also called 2F5 mutant d1 domain
# B12: 2A2 (designed binder)
# SIRPα d1 domain variant: B8 SIRPα d1 domain variant with L4V, A21I, I27V, T31F, Q54E, P56R, F94L, V103F
# notes: also called 2A2 mutant d1 domain
# B13: 1D4 (designed binder)
# SIRPα d1 domain variant: B8 SIRPα d1 domain variant with I6V, T31I, V47E, Q54E, P56H, G66T, I92V
# notes: First generation variant, unbiotinylated monomer in SPR; also called 1D4 mutant d1 domain
# B14: FB3 (designed binder)
# SIRPα d1 domain variant: B8 SIRPα d1 domain variant with T31F, V47L, G66T, R68K, I92V, V103F
# notes: also called FB3 mutant d1 domain
# B15: 2D3 (designed binder)
# SIRPα d1 domain variant: B8 SIRPα d1 domain variant with L4V, A21V, V47L, Q54E, G66T, I92V, F94L, V103F
# notes: also called 2D3 mutant d1 domain
# How the values were obtained:
# [1] = biological target: human CD47 on the surface of cancer cells (Raji, Jurkat, DLD-1) (human) (UniProt Q08722); experiment: flow cytometry on Jurkat cells, competition with Alexa Fluor 647 wild-type SIRPα tetramer (50 nM per paragraph 133)
# [2] = biological target: human CD47 on the surface of cancer cells (Raji, Jurkat, DLD-1) (human) (UniProt Q08722); experiment: flow cytometry on Raji cells, competition with 100 nM Alexa Fluor 647 WT SIRPα tetramer
# [3] = biological target: biotinylated CD47 IgSF domain (human CD47 residues 19-135 / residues 1-117, C15G) (human) (UniProt Q08722); experiment: SPR (Biacore T100, 25 C), biotinylated CD47 captured on SA chip, SIRPα variant in solution, 1:1 Langmuir model
# [4] = biological target: T1, mouse CD47 displayed on the surface of yeast (mouse, UniProt Q61735 19-133, limits assumed); experiment: flow cytometry on yeast displaying mouse CD47
# T1 sequence (looked up): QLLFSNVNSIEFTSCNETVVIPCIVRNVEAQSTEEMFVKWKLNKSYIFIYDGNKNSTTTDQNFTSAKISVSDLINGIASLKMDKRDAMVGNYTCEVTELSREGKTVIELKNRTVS
# [5] = biological target: T2, human CD47 on the surface of cancer cells (Raji, Jurkat, DLD-1) (human, UniProt Q08722 19-323); experiment: flow cytometry on Raji cells, competition with 100 nM Alexa Fluor 647 WT SIRPα tetramer
# T2 construct: whole, on cells; also called cell-surface CD47; CD47 on cancer cells
# [6] = biological target: T3, biotinylated CD47 IgSF domain (human CD47 residues 19-135 / residues 1-117, C15G) (human, UniProt Q08722 19-135, biotinylated with BirA ligase at the C-terminal biotin acceptor peptide tag); experiment: SPR (Biacore T100, 25 C), biotinylated CD47 captured on SA chip, SIRPα variant in solution, 1:1 Langmuir model
# T3 construct: range 19-135; Captured on a Biacore SA chip for SPR; C15G is counted on the mature domain (1-117), not on the precursor; also called immobilized CD47
# Description: SPR experiments were conducted on a Biacore T100 instrument at 25° C. Experiments used a Biacore SA sensor chip (GE Healthcare) to capture biotinylated CD47 at a surface density of approximately 150 RU. An unrelated biotinylated protein was immobilized as a reference surface for the SA sensor chip with matching RU to the experimental surface. Serial dilutions of unbiotinylated SIRPα variants in the running buffer [1×HBS-P (GE Healthcare)] were flowed over the chip at a rate of 50 μL/min. CD47 was regenerated using three 30 second injections of 2M MgCl₂. Data was analyzed using the Biacore T100 evaluation software version 2.0 with a 1:1 Langmuir binding model.
# Experiments were conducted with a Biacore T100 at 25° C. Protein concentrations were quantified by 280 nm absorbance with a Nanodrop2000 spectrometer (Thermo Scientific). A Biacore SA sensor chip (GE Healthcare) was used to capture biotinylated CD47 (Rₘₐₓ ˜150 RU). An unrelated biotinylated protein was immobilized with an RU value matching that of the […] to control for nonspecific binding. Measurements were made with serial dilutions of the SIRPα variants in HBS-P+ buffer (GE Healthcare). The CD47 surface was regenerated by three 60 second injections of 2 M MgCl₂. All data were analyzed with the Biacore T100 evaluation software version 2.0 with a 1:1 Langmuir binding model.
# [7] = biological target: T2, human CD47 on the surface of cancer …; experiment: flow cytometry on DLD-1 cells, detection with goat anti-human IgG
# Description: Varying concentrations of biotinylated SIRPα monomers, SIRPα-hlgG4 fusion proteins, or anti-CD47 antibodies were incubated with cancer cells as indicated. […] Binding of SIRPα-hlgG4 fusion proteins or anti-CD47 antibodies was detected with goat anti-human IgG antibody (Invitrogen) and was analyzed on an LSRFortessa with high-throughput sampler (BD Biosciences). Data represent the mean fluorescence intensity normalized to maximal binding for each class of reagents, and points were fit to sigmoidal dose-response curves using Prism 5 (Graphpad).
# [8] = biological target: T2, human CD47 on the surface of cancer …; experiment: flow cytometry on Jurkat cells, competition with Alexa Fluor 647 wild-type SIRPα tetramer (50 nM per paragraph 133)
# Description: (§1) GFP+ Jurkat cells were washed in PBS then incubated with titrating concentrations of biotinylated SIRPα variants for 30 minutes on ice. Wild-type SIRPα tetramer was pre-formed by incubating a 4:1 molar ratio of biotinylated wild-type SIRPα with streptavidin for 15 minutes on ice. […] Cells were washed twice then analyzed for SIRPα variant binding by flow cytometry using an Accuri C6 flow cytometer. To assess blocking of wild-type SIRPα to cD47, 50 nM wild-type SIRPα tetramer was incubated with titrating concentrations of CD47 blocking agents for 30 minutes on ice. Anti-CD47 clone B6H12 (eBioscience) was used as a positive control for blocking. Data were analyzed using GraphPad Prism 5. Maximal SIRPα variant binding represents the percentage of the maximal mean fluorescence intensity measured for each variant.
# [9] = biological target: T4, mouse CD47 on mouse cells (CT26 colon cancer cells; mouse blood cells) (mouse, UniProt Q61735 19-303); experiment: flow cytometry on mouse CT26 colon cancer cells
# T4 construct: whole, on cells
# T4 sequence (looked up): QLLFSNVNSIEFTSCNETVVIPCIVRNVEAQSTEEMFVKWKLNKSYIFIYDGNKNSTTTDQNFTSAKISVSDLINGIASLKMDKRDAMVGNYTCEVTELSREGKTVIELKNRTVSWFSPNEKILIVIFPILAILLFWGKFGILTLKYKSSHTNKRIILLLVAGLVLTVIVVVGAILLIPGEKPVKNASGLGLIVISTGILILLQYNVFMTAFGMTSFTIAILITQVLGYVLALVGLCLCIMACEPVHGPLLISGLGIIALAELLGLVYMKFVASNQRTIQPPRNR
# [10] = biological target: T2, human CD47 on the surface of cancer …; experiment: flow cytometry on Jurkat cells, biotinylated SIRPα variant detected with Alexa Fluor 647 streptavidin
# Description: as §1
molecule,measurement,setting,value
Anti-CD47 (B6H12) (antibody),IC50 (read off the curve),[1],80 nM
Fab fragments of anti-CD47 antibody clone B6H12,IC50 (read off the curve),[2],100 nM
WT allele 2 (from UniProt P78324) (receptor),Kd,[3],452 nM
B1,EC50 (read off the curve),[4],~20 nM
same,IC50 (read off the curve),[5],~0.8 nM
same,Kd,[6],0.0111 nM
B2,EC50 (read off the curve),[7],~4 nM
B3,EC50 (read off the curve),[7],~5 nM
same,IC50 (read off the curve),[8],~2 nM
B4,Kd,[6],3.6 nM
same,IC50 (read off the curve),[8],~80 nM
B5,IC50 (read off the curve),[5],~2 nM
same,Kd,[6],0.0413 nM
same,IC50 (read off the curve),[8],~3 nM
B6,EC50 (read off the curve),[9],~300 nM
B7,binding result,[10],binds
B8,Kd,[6],0.034 nM
B9,Kd,[6],0.5 nM
B10,Kd,[6],0.423 nM
B11,Kd,[6],0.276 nM
B12,Kd,[6],0.402 nM
B13,Kd,[6],11.6 nM
B14,Kd,[6],0.0699 nM
B15,Kd,[6],0.847 nM
